Molecular target: CD20 on Raji cells (CD20-positive human Burkitt's lymphoma cells) (human) (UniProt P11836)
Test: cell-based or functional assay

Sequence of CD20 on Raji cells (CD20-positive human Burkitt's lymphoma cells) (human) (P11836 whole entry): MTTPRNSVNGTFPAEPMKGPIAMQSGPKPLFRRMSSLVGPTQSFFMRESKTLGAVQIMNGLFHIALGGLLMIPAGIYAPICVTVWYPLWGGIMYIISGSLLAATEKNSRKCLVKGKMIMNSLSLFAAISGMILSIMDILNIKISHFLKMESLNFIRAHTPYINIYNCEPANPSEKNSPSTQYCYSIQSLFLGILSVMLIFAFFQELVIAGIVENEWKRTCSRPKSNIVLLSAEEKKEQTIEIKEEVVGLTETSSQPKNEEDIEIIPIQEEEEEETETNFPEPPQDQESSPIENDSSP

Substance: isotype antibody (negative control)
- EC50 for killing of Raji-luc cells by CIK effector cells, luciferase read-out: 230 ng/mL

Source: US20220002431A1
